The data set addresses T1, MdABI5 (Malus domestica? (apple), UniProt A0A498IDK6 1-461).
T1 sequence: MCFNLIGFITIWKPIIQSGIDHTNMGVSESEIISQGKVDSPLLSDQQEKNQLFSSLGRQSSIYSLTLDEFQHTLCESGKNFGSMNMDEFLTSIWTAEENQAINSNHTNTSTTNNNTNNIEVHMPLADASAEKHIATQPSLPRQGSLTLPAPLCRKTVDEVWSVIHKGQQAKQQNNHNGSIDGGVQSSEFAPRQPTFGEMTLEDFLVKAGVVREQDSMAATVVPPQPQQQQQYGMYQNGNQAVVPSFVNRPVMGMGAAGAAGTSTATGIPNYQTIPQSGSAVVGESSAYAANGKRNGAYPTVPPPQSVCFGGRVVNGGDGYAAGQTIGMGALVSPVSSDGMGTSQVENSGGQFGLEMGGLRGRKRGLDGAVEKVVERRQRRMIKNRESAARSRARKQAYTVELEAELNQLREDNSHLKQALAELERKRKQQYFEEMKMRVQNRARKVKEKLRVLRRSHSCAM
Briefly: EMSA; MdABI5 alone; Beyotime EMSA/Gel-Shift Kit binding buffer (composition, salt and pH not given), 24 C, 30 min, biotin-labelled probe. The conditions noted are these: protein: recombinant; chain copies: 2; label: biotin; blunt.

B1: MdSAG18 promoter probe (dsDNA)
DNA 1: GGGGGGGGTCCACGTGGGTCACCAAC
DNA 2: GTTGGTGACCCACGTGGACCCCCCCC
Take B1: the binding result is given as “no binding”.

The values above are taken from paper PMC10995623, “Apple E3 ligase MdPUB23 mediates ubiquitin-dependent degradation of MdABI5 to delay ABA-triggered leaf senescence”.
